Here are results for two molecules from PMC7160673 (2020).

Test in all cases: FP
In test [1] the target is T1, M Phase Phosphoprotein 8 chromodomain (UniProt Q99549 55-116).
T1 chain: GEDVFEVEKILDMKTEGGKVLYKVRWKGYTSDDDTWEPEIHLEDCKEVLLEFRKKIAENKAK

Test [2] addresses T2, Chromodomain Y-like protein 2 chromodomain.
T2 chain: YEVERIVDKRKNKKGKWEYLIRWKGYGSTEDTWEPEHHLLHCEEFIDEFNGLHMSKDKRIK

Test [3] has as its target T1, M Phase Phosphoprotein 8 chromodomain.

In general, Kd refers to the constant that tells how readily two partners part at equilibrium. Read a low Kd as higher affinity.

Where two headings read alike, the source gives them in different places. Where no end group is shown, it is not given here. [ ]: non-standard residue; d: D form. The star is where a group is joined. 5FAM = O=C1OC2(c3ccc(O)cc3Oc3cc(O)ccc32)c2ccc(C(=O)*)cc21; Lys(Me3) = C[N+](C)(C)CCCC[C@H](N)C(=O)O

B1: FAM-WAY(Kme3)TGK peptide (peptide)
chain: 5FAM-WAY[Lys(Me3)]TGK
modifications: also: flanking glycines, number not given here
Take B1: in test [1], binding was put at a Kd of 1.37 µM. In other words, the single-digit micromolar range.

B2: FAM-TAR(Kme3)STG peptide (H3K9me3) (peptide)
chain: 5FAM-TAR[Lys(Me3)]STG
modifications: also: flanking glycines, number not given here
Turning to B2, the dissociation constant Kd came out at 18.4 µM in test [2] and 11.5 µM in test [3].
